Measured values reported in patent US20140356366A1 (SAMSUNG ELECTRONICS, published 2014).
One block for each binder: values may come before it.

Columns and labels:
[1] = molecular target: c-Met on MKN45 stomach cancer cells (human, UniProt P08581 25-1390); assay: cell-based or functional assay
[2] = molecular target: T1, EGFR-Fc (#344-ER, R&D Systems) (UniProt P00533 25-645); assay: Biacore T100, antibody captured by human Fab capturer on CM5 chip, EGFR-Fc injected
T1 construct: Bought reagent; only name and catalogue number are printed; not shown: Fc part of the bought fusion protein
Description: (§1) The anti-c-Met/anti-EGFR bispecific antibody was analyzed for affinity for the two antigens (c-Met/EGFR) using a Biacore T100 instrument (GE). […] The chip surface was regenerated by injecting a 10 mM Glycine-HCl solution (pH 1.5). For affinity evaluation, the data was fitted using the BIAevaluation software (GE Healthcare, Biacore T100 evaluation software).

[3] = molecular target: T2, human c-Met/Fc fusion protein (R&D Systems) (human, UniProt P08581 25-932); assay: Biacore T100, antibody captured by human Fab capturer on CM5 chip, c-Met-Fc injected
T2 construct: Bought reagent; Treated as one molecule; also called c-Met-Fc (#358-MT/CF, R&D Systems); human c-Met/Fc protein; not shown: Fc part of the bought fusion protein
T2 sequence (P08581 25-932 limits assumed): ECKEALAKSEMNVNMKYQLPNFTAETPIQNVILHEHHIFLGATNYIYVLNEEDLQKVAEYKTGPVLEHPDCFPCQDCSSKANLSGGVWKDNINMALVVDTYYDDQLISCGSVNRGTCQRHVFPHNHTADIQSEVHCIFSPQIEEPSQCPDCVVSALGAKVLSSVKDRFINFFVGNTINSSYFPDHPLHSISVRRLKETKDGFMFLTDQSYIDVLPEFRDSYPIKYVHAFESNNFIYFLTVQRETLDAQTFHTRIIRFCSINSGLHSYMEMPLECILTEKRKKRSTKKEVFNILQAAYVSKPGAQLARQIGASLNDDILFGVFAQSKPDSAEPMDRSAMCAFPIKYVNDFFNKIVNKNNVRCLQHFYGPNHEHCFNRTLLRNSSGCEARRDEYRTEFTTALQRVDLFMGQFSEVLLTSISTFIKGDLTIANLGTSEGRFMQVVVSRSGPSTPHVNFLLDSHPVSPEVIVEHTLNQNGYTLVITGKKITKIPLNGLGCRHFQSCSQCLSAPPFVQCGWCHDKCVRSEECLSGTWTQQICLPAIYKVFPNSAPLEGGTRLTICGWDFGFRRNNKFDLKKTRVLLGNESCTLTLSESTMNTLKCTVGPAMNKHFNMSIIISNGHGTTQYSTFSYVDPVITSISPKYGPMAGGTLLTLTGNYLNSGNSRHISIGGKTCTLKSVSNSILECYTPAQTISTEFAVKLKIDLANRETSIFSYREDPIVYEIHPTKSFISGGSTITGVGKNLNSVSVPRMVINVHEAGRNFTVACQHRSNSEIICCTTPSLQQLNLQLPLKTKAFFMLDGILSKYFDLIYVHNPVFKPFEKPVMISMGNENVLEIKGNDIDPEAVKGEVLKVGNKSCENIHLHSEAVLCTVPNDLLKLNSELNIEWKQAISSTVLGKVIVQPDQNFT
Description: as §1

[4] = molecular target: T3, peptide AEPSQ (SEQ ID NO: 133); assay: Biacore, huAbF46 immobilized on CM5 chip, peptide injected
T3 peptide: AEPSQ

[5] = molecular target: T4, peptide EEASQ (SEQ ID NO: 135); assay: as above
T4 peptide: EEASQ

[6] = molecular target: T5, peptide EAPSQ (SEQ ID NO: 134); assay: as above
T5 peptide: EAPSQ

[7] = molecular target: T6, peptide EEPSQ (SEQ ID NO: 73); assay: as above
T6 peptide: EEPSQ

[8] = molecular target: T7, peptide EEPAQ (SEQ ID NO: 136); assay: as above
T7 peptide: EEPAQ

[9] = molecular target: T8, peptide EEPSA (SEQ ID NO: 137); assay: as above
T8 peptide: EEPSA

[10] = molecular target: T9, synthesized peptide CSPQIEDPSQC (SEQ ID NO: 127), E168D; assay: PEPSCAN ELISA on synthesized peptides
T9 construct: Core EDPSQ, E168D mutation of c-Met
T9 peptide: CSPQIEDPSQC
Description: (§2) The peptides were maintained at room temperature for 30 minutes by using a 5% blocking solution to provoke a reaction (4% ovalbumin, 5% horse serum, and 1% Tween 80). […] Thereafter, the resultant product was treated with rabbit-anti-sheep antibody (SIGMA) and washed with PBS, and the washed product was then treated with peroxidase-attached swine-anti-rabbit antibody (SIGMA) and washed with PBS. Then, the resultant was treated with 2 ul/ml of peroxidase 2,2′-azino-di-3-ethylbenzthiazoline sulfonate (ABTS) (SIGMA) in 3% H₂O₂, and a color reaction was measured after 1 hour.

[11] = molecular target: T10, synthesized peptide CQIEDPSQAPC (SEQ ID NO: 129), E168D; assay: PEPSCAN ELISA on synthesized peptides
T10 construct: Core EDPSQ, E168D mutation of c-Met
T10 peptide: CQIEDPSQAPC
Description: as §2

[12] = molecular target: T11, synthesized peptide CIEDPSQAPDC (SEQ ID NO: 130), E168D; assay: PEPSCAN ELISA on synthesized peptides
T11 construct: Core EDPSQ, E168D mutation of c-Met
T11 peptide: CIEDPSQAPDC
Description: as §2

Sequence of c-Met on MKN45 stomach cancer cells (P08581 25-1390): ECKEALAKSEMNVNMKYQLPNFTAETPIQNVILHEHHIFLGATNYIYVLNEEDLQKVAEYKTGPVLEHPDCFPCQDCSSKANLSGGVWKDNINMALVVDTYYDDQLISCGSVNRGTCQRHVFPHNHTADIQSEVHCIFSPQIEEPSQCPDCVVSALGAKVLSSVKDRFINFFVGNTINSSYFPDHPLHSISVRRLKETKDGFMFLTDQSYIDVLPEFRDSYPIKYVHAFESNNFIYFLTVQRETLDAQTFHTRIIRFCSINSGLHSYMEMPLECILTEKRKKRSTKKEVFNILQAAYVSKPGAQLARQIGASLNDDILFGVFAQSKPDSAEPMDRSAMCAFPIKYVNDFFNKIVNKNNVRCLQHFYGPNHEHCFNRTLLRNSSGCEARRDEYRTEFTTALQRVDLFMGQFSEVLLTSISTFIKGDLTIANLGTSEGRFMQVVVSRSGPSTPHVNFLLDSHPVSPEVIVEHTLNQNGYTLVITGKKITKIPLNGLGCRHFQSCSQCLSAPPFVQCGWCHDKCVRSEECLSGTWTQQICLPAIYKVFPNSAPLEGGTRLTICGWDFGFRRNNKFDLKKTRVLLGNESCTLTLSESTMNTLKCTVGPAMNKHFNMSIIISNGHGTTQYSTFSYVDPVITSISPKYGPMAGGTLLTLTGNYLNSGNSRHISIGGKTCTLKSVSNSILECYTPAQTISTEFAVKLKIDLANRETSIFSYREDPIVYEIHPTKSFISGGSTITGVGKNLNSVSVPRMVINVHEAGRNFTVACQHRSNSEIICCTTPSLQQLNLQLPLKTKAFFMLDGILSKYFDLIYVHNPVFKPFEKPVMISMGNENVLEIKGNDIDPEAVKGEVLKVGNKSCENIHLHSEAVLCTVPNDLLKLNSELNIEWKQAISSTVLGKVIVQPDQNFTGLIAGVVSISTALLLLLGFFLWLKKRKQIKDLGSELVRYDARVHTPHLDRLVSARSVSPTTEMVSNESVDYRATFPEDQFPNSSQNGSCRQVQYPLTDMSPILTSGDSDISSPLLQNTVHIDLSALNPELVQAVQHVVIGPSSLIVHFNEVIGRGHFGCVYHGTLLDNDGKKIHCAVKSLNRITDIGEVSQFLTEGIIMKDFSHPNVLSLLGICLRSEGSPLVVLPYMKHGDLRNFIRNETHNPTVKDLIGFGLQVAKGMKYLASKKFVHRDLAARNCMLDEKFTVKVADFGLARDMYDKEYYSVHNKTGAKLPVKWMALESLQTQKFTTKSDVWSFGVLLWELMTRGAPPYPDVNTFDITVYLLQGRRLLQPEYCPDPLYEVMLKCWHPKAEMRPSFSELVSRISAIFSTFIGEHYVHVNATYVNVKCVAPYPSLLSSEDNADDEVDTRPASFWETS

B1: anti-c-Met/anti-EGFR bispecific antibody ME-03 (bispecific antibody)
heavy: EVQLVESGGGLVQPGGSLRLSCAASGFTFTDYYMSWVRQAPGKGLEWLGFIRNKANGYTTEYSASVKGRFTISRDNSKNTLYLQMNSLRAEDTAVYYCARDNWFAYWGQGTLVTVSSASTKGPSVFPLAPCSRSTSESTAALGCLVKDYFPEPVTVSWNSGALTSGVHTFPAVLQSSGLYSLSSVVTVPSSNFGTQTYTCNVDHKPSNTKVDKTVERKCCVECPPCPAPPVAGPSVFLFPPKPKDTLMISRTPEVTCVVVDVSHEDPEVQFNWYVDGVEVHNAKTKPREEQFNSTFRVVSVLTVVHQDWLNGKEYKCKVSNKGLPAPIEKTISKTKGQPREPQVYTLPPSREEMTKNQVSLTCLVKGFYPSDIAVEWESNGQPENNYKTTPPMLDSDGSFFLYSKLTVDKSRWQQGNVFSCSVMHEALHNHYTQKSLSLSPGKGGGGSGGGGSQVQLVQSGAEVKKPGSSVKVSCKASGFTFTDYKIHWVRQAPGQGLEWMGYINPNSGYSTYASKFQGRVTITADKSTSTAYMELSSLRSEDTAVYYCARLSPGGYYVMDAWGQGTTVTVSSGGGGSGGGGSGGGGSDIQMTQSPSSLSASVGDRVTITCRASQGINNYLNWYQQKPGKAPKLLIYNTNNLQTGVPSRFSGSGSGTEFTLTISSLQPEDEATYYCLQHNSFPTFGQGTKLEIKRT
light: DIQMTQSPSSLSASVGDRVTITCKSSQSLLASGNQNNYLAWYQQKPGKAPKMLIIWASTRVSGVPSRFSGSGSGTDFTLTISSLQPEDFATYYCQQSYSRPYTFGQGTKVEIKRTVAAPSVFIFPPSDEQLKSGTASVVCLLNNFYPREAKVQWKVDNALQSGNSQESVTEQDSKDSTYSLSSTLTLSKADYEKHKVYACEVTHQGLSSPVTKSFNRGEC
c-Met degradation (relative total amount of c-Met, ELISA of lysates of MKN45 cells treated 24 hrs with 5 µg/ml antibody) [1]: 88.4%

B3: anti-c-Met/anti-EGFR bispecific antibody ME-01 (bispecific antibody)
heavy: EVQLVESGGGLVQPGGSLRLSCAASGFTFTDYYMSWVRQAPGKGLEWLGFIRNKANGYTTEYSASVKGRFTISRDNSKNTLYLQMNSLRAEDTAVYYCARDNWFAYWGQGTLVTVSSASTKGPSVFPLAPCSRSTSESTAALGCLVKDYFPEPVTVSWNSGALTSGVHTFPAVLQSSGLYSLSSVVTVPSSNFGTQTYTCNVDHKPSNTKVDKTVERKCCVECPPCPAPPVAGPSVFLFPPKPKDTLMISRTPEVTCVVVDVSHEDPEVQFNWYVDGVEVHNAKTKPREEQFNSTFRVVSVLTVVHQDWLNGKEYKCKVSNKGLPAPIEKTISKTKGQPREPQVYTLPPSREEMTKNQVSLTCLVKGFYPSDIAVEWESNGQPENNYKTTPPMLDSDGSFFLYSKLTVDKSRWQQGNVFSCSVMHEALHNHYTQKSLSLSPGKGGGGSGGGGSQVQLVQSGAEVKKPGSSVKVSCKASGFTFTDYKIHWVRQAPGQGLEWMGYFNPNSGYSTYAQKFQGRVTITADKSTSTAYMELSSLRSEDTAVYYCARLSPGGYYVMDAWGQGTTVTVSSGGGGSGGGGSGGGGSDIQMTQSPSSLSASVGDRVTITCRASQGINNYLNWYQQKPGKAPKRLIYNTNNLQTGVPSRFSGSGSGTEFTLTISSLQPEDFATYYCLQHNSFPTFGQGTKLEIKRT
light: DIQMTQSPSSLSASVGDRVTITCKSSQSLLASGNQNNYLAWYQQKPGKAPKMLIIWASTRVSGVPSRFSGSGSGTDFTLTISSLQPEDFATYYCQQSYSRPYTFGQGTKVEIKRTVAAPSVFIFPPSDEQLKSGTASVVCLLNNFYPREAKVQWKVDNALQSGNSQESVTEQDSKDSTYSLSSTLTLSKADYEKHKVYACEVTHQGLSSPVTKSFNRGEC
c-Met degradation (relative total amount of c-Met, ELISA of lysates of MKN45 cells treated 24 hrs with 5 µg/ml antibody) [1]: 86.8%

Further lines, with some results ahead:

Kd [2]: 0.12 nM | koff [2]: 2.7e-05 s⁻¹ | kon [2]: 240000 M⁻¹ s⁻¹ | Kd [3]: 0.23 nM | koff [3]: 0.00016 s⁻¹ | kon [3]: 670000 M⁻¹ s⁻¹
B2: anti-c-Met/anti-EGFR bispecific antibody ME-03S (bispecific antibody)
heavy: EVQLVESGGGLVQPGGSLRLSCAASGFTFTDYYMSWVRQAPGKGLEWLGFIRNKANGYTTEYSASVKGRFTISRDNSKNTLYLQMNSLRAEDTAVYYCARDNWFAYWGQGTLVTVSSASTKGPSVFPLAPCSRSTSESTAALGCLVKDYFPEPVTVSWNSGALTSGVHTFPAVLQSSGLYSLSSVVTVPSSNFGTQTYTCNVDHKPSNTKVDKTVERKCCVECPPCPAPPVAGPSVFLFPPKPKDTLMISRTPEVTCVVVDVSHEDPEVQFNWYVDGVEVHNAKTKPREEQFNSTFRVVSVLTVVHQDWLNGKEYKCKVSNKGLPAPIEKTISKTKGQPREPQVYTLPPSREEMTKNQVSLTCLVKGFYPSDIAVEWESNGQPENNYKTTPPMLDSDGSFFLYSKLTVDKSRWQQGNVFSCSVMHEALHNHYTQKSLSLSPGKGGGGSGGGGSQVQLVQSGAEVKKPGSSVKVSCKASGFTFTDYKIHWVRQAPGQCLEWMGYINPNSGYSTYASKFQGRVTITADKSTSTAYMELSSLRSEDTAVYYCARLSPGGYYVMDAWGQGTTVTVSSGGGGSGGGGSGGGGSDIQMTQSPSSLSASVGDRVTITCRASQGINNYLNWYQQKPGKAPKLLIYNTNNLQTGVPSRFSGSGSGTEFTLTISSLQPEDEATYYCLQHNSFPTFGQCTKLEIKRT
light: DIQMTQSPSSLSASVGDRVTITCKSSQSLLASGNQNNYLAWYQQKPGKAPKMLIIWASTRVSGVPSRFSGSGSGTDFTLTISSLQPEDFATYYCQQSYSRPYTFGQGTKVEIKRTVAAPSVFIFPPSDEQLKSGTASVVCLLNNFYPREAKVQWKVDNALQSGNSQESVTEQDSKDSTYSLSSTLTLSKADYEKHKVYACEVTHQGLSSPVTKSFNRGEC
notes: Secondary mutant (disulfide-stabilised) anti-EGFR scFv fused to the C-terminus of the Fc of L3-1Y-IgG2

Kd [7]: 1.64 nM | Kd [8]: 1.43 nM | binding result [10]: no binding | binding result [11]: no binding | binding result [12]: no binding
B4: humanized antibody huAbF46 (H4-heavy / H4-light) (antibody, V domains shown)
VH: EVQLVESGGGLVQPGGSLRLSCAASGFTFTDYYMSWVRQAPGKGLEWLGFIRNKANGYTTEYSASVKGRFTISRDNSKNTLYLQMNSLRAEDTAVYYCARDNWFAYWGQGTLVTVSS
VL: DIQMTQSPSSLSASVGDRVTITCKSSQSLLASGNQNNYLAWHQQKPGKAPKMLIIWASTRVSGVPSRFSGSGSGTDFTLTISSLQPEDFATYYCQQSYSAPLTFGQGTKVEIKR
notes: Purified on Protein A as a whole antibody; also called humanized antibody AbF46
binding result [4]: no binding (tested: 100 nM to 0.39 nM of the peptides) | binding result [5]: no binding (tested: 100 nM to 0.39 nM of the peptides) | binding result [6]: no binding (tested: 100 nM to 0.39 nM of the peptides) | binding result [9]: no binding (tested: 100 nM to 0.39 nM of the peptides)
